Earlier results in patent US20250302913A1, “LACRIPEP PROMOTES NEUROREGENERATION AND MAINTAINS EPITHELIAL PROGENITOR CELL IDENTITY” (The Regents of The University of California, priority 2022, published 2025).

T1: syndecan-1 (SDC1) (Homo sapiens, UniProt P18827)
T1 sequence (P18827 23-310): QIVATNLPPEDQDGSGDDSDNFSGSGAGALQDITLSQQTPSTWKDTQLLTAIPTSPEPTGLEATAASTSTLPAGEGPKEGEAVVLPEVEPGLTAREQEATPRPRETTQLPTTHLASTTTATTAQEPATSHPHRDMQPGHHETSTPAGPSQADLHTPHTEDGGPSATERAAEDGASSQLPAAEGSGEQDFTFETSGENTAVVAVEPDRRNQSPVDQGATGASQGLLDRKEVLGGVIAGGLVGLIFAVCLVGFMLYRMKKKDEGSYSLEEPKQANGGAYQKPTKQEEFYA


Tests used:
rabbit corneas = settings: after refractive surgery; cited from earlier work
human patients = settings: controlled clinical studies; cited from earlier work
syndecan-1 (SDC1) = biological target: T1, syndecan-1 (SDC1); settings: cited from earlier work
corneal epithelial cell = settings: in vitro; cited from earlier work
healthy rabbit model = settings: cited from earlier work

Row | Molecule | reinnervation of corneas (rabbit corneas) | corneal sensitivity or visual acuity versus vehicle (artificial tears) (human patients) | binding and activation of syndecan-1 (syndecan-1 (SDC1)) | corneal epithelial cell proliferation (corneal epithelial cell) | basal tearing (healthy rabbit model)
1 | cenegermin: recombinant nerve growth factor | stimulated the reinnervation of rabbit corneas | failed to show significant benefit over vehicle |  |  | 
2 | Lacritin: endogenous glycoprotein initially identified in tears (protein, listed as Homo sapiens, Description of sequence: Lacritin, endogenous glycoprotein initially identified in tears) MKFTTLLFLAAVAGALVYAEDASSDSTGADPAQEAGTSKPNEEISGPAEPASPPETTTTAQETSAAAVQGTAKVTSSRQELNPLKSIVEKSILLTEQALAKAGKGMHGGVPGGKQFIENGSEFAQKLLKKFSLLKPWA |  |  | bind and activate | promote corneal epithelial cell proliferation | promote basal tearing
